Patent publication US20260234255A1 (Genmab, published 2026)
Substitutions are numbered along the chain they refer to.

T1: human CD30 (human, UniProt P28908 19-595)
T1 construct: also called huCD30; TNFRSF8
T1 sequence: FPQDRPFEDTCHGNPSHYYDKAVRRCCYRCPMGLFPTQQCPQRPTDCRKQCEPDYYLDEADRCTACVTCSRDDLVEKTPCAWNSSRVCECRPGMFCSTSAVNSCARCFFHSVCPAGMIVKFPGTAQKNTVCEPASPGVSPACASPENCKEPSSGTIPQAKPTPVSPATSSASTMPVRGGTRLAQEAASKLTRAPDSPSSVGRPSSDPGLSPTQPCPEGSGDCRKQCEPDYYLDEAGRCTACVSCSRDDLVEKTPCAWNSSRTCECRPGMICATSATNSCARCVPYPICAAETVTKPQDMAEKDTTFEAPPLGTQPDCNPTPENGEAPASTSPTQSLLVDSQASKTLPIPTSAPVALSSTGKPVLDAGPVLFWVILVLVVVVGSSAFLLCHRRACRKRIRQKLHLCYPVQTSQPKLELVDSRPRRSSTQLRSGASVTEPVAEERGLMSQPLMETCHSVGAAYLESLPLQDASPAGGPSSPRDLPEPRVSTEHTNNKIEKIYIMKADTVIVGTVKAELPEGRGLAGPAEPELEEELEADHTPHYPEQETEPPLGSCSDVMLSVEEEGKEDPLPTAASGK

T2: rhesus monkey (Macaca mulatta) CD30 (rhesus monkey, UniProt P28908 19-595 (human entry))
T2 construct: also called mmCD30
T2 chain: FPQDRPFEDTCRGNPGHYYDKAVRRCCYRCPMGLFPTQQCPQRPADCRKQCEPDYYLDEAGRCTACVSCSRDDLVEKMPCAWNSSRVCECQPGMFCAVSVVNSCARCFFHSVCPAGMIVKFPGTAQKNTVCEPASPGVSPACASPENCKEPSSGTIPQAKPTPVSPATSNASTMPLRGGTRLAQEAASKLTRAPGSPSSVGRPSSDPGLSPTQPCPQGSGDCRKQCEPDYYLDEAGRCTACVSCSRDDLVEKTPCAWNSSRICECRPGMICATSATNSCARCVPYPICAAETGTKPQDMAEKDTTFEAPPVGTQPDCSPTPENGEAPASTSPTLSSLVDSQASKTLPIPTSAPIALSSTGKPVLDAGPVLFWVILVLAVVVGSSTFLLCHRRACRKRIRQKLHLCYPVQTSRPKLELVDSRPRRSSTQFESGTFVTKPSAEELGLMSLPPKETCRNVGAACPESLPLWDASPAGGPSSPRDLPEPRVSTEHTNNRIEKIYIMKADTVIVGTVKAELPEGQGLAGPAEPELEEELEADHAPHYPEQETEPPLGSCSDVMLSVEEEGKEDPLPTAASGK

B1: bsG1-huCD3-FEALxCD30-MDX060-FEAR (bispecific antibody, human IgG1, kappa, lambda)
heavy 1: not shown
light 1: not shown
heavy 2: QVQLQQWGAGLLKPSETLSLTCAVYGGSFSAYYWSWIRQPPGKGLEWIGDINHGGGTNYNPSLKSRVTISVDTSKNQFSLKLNSVTAADTAVYYCASLTAYWGQGSLVTVSSASTKGPSVFPLAPSSKSTSGGTAALGCLVKDYFPEPVTVSWNSGALTSGVHTFPAVLQSSGLYSLSSVVTVPSSSLGTQTYICNVNHKPSNTKVDKRVEPKSCDKTHTCPPCPAPEFEGGPSVFLFPPKPKDTLMISRTPEVTCVVVAVSHEDPEVKFNWYVDGVEVHNAKTKPREEQYNSTYRVVSVLTVLHQDWLNGKEYKCKVSNKALPAPIEKTISKAKGQPREPQVYTLPPSREEMTKNQVSLTCLVKGFYPSDIAVEWESNGQPENNYKTTPPVLDSDGSFFLYSRLTVDKSRWQQGNVFSCSVMHEALHNHYTQKSLSLSPG
light 2: DIQMTQSPTSLSASVGDRVTITCRASQGISSWLTWYQQKPEKAPKSLIYAASSLQSGVPSRFSGSGSGTDFTLTISSLQPEDFATYYCQQYDSYPITFGQGTRLEIKRTVAAPSVFIFPPSDEQLKSGTASVVCLLNNFYPREAKVQWKVDNALQSGNSQESVTEQDSKDSTYSLSSTLTLSKADYEKHKVYACEVTHQGLSSPVTKSFNRGEC
notes: also called bsG1-huCD3xCD30-MDX060
B2: bsG1-huCD3-FEALxCD30-MDX060-FERR (bispecific antibody, human IgG1, kappa, lambda)
heavy 1: not shown
light 1: not shown
heavy 2: B1 heavy 2 with G231R, A260D
light 2: B1 light 2
notes: Bispecific IgG1 made by controlled Fab-arm exchange; also called bsIgG1-huCD3-FEALxCD30-MDX060-FERR; bsG1-huCD3×CD30-MDX060

Experiments:
[1] = molecular target: T3, cynomolgus monkey CD3 (cynomolgus monkey, UniProt Q95LI5 22-198); test: flow cytometry, cynomolgus monkey T cells (PBMCs)
T3 construct: CD3 endogenously expressed on T cells within cynomolgus monkey PBMCs
T3 sequence (Q95LI5 22-198): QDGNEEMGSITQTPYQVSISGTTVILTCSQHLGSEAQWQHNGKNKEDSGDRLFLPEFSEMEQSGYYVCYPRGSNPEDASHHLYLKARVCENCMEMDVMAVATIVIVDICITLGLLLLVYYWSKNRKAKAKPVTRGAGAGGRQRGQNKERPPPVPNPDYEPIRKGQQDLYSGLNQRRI
Method: Cynomolgus monkey PBMCs (Tebu-Bio, The Netherlands; cat. no. PBMCMFA-10) or purified human T cells were plated in polystyrene 96-well round-bottom plates. T cells were derived from human donor buffy coats (Sanquin, Amsterdam, The Netherlands) and isolated using the RosetteSep human T cell enrichment cocktail (Stemcell Technologies, France, cat. no. 15061) according to manufacturer's instructions. […] After washing twice in staining buffer, cells were incubated in 50 μL secondary R-PE-conjugated goat-anti-human IgG antibody at 4° C. for 30 min (1:400 dilution). After washing twice in staining buffer, T cells were stained for T-cell markers CD3 (1:100; Miltenyi biotec, clone 10D12, conjugated to APC), CD4 (1:50; eBioscience, clone OKT4, conjugated to APC-Cy7), CD8 (1:100; Biolegend, clone RPA-T8, conjugated to AF700) and T-cell activation markers CD69 (1:50; BD Biosciences, clone AB2439, conjugated to FITC), CD25 (1:50; eBioscience, clone BC96, conjugated to PE-Cy7) and CD279/PD1 (1:50; BD Biosciences, clone AEH12.2H7, conjugated to BV605). Single stained samples with Ultracomp beads (5 μL; Invitrogen, cat. no. 01-2222-42) were used for compensation adjustments of the flow cytometer. After 30 min of incubation at 4° C., cells were washed twice with staining buffer, resuspended in 100 μL staining buffer and analyzed using a FACS Fortessa (BD Biosciences). Data were processed using FlowJo (BD Biosciences).

[2] = molecular target: T1, human CD30; test: flow cytometry, HDLM-2 cells
Summary of the method: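 CD3×CD30 bispecific antibodies, serially diluted 3-fold from 10 to 0.0046 μg/mL, were incubated with 3×10⁴ cells/well at 4° C for 30 min, then with a secondary antibody at 4° C for 30 min. Live cells were gated by FSC/SSC and TO-PRO-3 exclusion, and curves were fitted by four-parameter sigmoidal regression.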

[3] = molecular target: T2, rhesus monkey (Macaca mulatta) CD30; test: flow cytometry, HEK293 cells; panel title 'HEK293 rhesus CD30'
Method: Cells (3×10⁴ cells/well) were incubated in polystyrene 96-well round-bottom plates (Thermo Scientific, cat. no. 163320) with serial dilutions of antibodies (ranging from 0.0002 to 50 μg/mL in 4-fold dilution steps) in 50 μL staining buffer at 4° C. for 30 min. Experiments were performed in technical duplicate. After washing twice in staining buffer, cells were incubated in 50 μL secondary antibody at 4° C. for 30 min. As a secondary antibody, R-PE-conjugated goat-anti-human IgG (Jackson ImmunoResearch, UK; cat. no. 109⁻¹¹⁶-098) diluted 1:200 in staining buffer was used. Cells were washed twice in staining buffer, resuspended in 30 μL staining buffer containing 0.4% EDTA and the ToPro-3 viability marker (Invitrogen, cat. no. T3605) diluted 1:10,000. Cells were analyzed on an iQue Screener (Intellicyt Corporation, USA). Binding curves were analyzed using non-linear regression (sigmoidal dose-response with variable slope) using GraphPad Prism V9.0.0 software (GraphPad Software, San Diego, CA, USA).

[4] = molecular target: T1, human CD30; test: flow cytometry, KI-JK cells (ALCL), average of 3 tests
Method: Cells (3×10⁴ cells/well) were incubated in polystyrene 96-well round-bottom plates (Greiner bio-one, cat. no. 650180) with serial dilutions of antibodies (range 0.0046 to 10 μg/mL in 3-fold dilution steps) in 50 μL staining buffer at 4° C. for 30 min. After washing twice in staining buffer, cells were incubated with 50 μL secondary antibody at 4° C. for 30 min. […] Next, cells were washed twice in staining buffer, resuspended in 100 μL staining buffer supplemented with TO-PRO-3 iodide (Thermo Fisher Scientific; cat. no. T3605; 1:8000 dilution) and analyzed on a FACSCelesta flow cytometer (BD Biosciences, USA). Live cells were gated based on FSC/SSC and absence of TOPRO-3 staining. Binding curves were analyzed by non-linear regression of log-transformed data (sigmoidal dose-response with variable slope, four parameters) using GraphPad Prism V7.02 software (GraphPad Software, San Diego, CA, USA).

| Binder | EC50 (read off the curve) [1] [µg/mL] | EC50 (read off the curve) [2] [µg/mL] | EC50 (read off the curve) [3] [µg/mL] | EC50 [4] [µg/mL] |
| --- | --- | --- | --- | --- |
| B1 | ~0.4 | ~0.3 |  |  |
| B2 |  |  | ~0.07 | 0.191 |
